Here are results for 19 sequences from the DeepSol protein solubility set.

This data set can be described thus: soluble on expression in E. coli; label from the status in PepcDB or PDB records.
Take “MALSDRLELVSASEIRKLFDIAAGMKDVISLGIGEPDFDTPQHIKEYAKEALDKGLTHYGPNIGLLELREAIAEKLKKQNGIEADPKTEIMVLLGANQAFLMGLSAFLKDGEEVLIPTPAFVSYAPAVILAGGKPVEVPTYEEDEFRLNVDELKKYVTDKTRALIINSPCNPTGAVLTKKDLEEIADFVVEHDLIVISDEVYEHFIYDDARHYSIASLDGMFERTITVNGFSKTFAMTGWRLGFVAAPSWIIERMVKFQMYNATCPVTFIQYAAAKALKDERSWKAVEEMRKEYDRRRKLVWKRLNEMGLPTVKPKGAFYIFPRIRDTGLTSKKFSELMLKEARVAVVPGSAFGKAGEGYVRISYATAYEKLEEAMDRMERVLKERKLV”: the “soluble on expression in E. coli” value is given as “soluble”.
Under “MALSKVKLNDTLNKDQLLSSSKYTIQRSTGDSIDTPNYDVQKHINKLCGMLLITEDANHKFTGLIGMLYAMSRLGREDTIKILRDAGYHVKANGVDVTTHRQDINGKEMKFEVLTLASLTTEIQINIEIESRKSYKKMLKEMGEVAPEYRHDSPDCGMIILCIAALVITKLAAGDRSGLTAVIRRANNVLKNEMKRYKGLLPKDIANSFYEVFEKHPHFIDVFVHFGIAQSSTRGGSRVEGIFAGLFMNAYGAGQVMLRWGVLAKSVKNIMLGHASVQAEMEQVVEVYEYAQKLGGEAGFYHILNNPKASLLSLTQFPHFSSVVLGNAAGLGIMGEYRGTPRNQDLYDAAKAYAEQLKENGVINYSVLDLTAEELEAIKHQLNPKDNDVEL” stands “soluble”.
Under “MAMKVKEVANLVGISVRTLHHYDEIGLLTPDETTESGYRLYSNENLEMLQQILFFKELGFPLKKIKEIIMSPSFDRKEALQLHKKMLLEKRARLDKVIATIDKTIQHTKGEIEMTNKEKFKGFDFSHNPYEEEARERWGDAAVDKANEYAKGMSKEKQEEFNAIYRNLAALRHGAPDSKEAQEAIKVWYDYLQNFSHYSLDAFKGLGQMYVADERFTKNIDKFGEGLAQFMCDAMEVYADRNK” stands “not soluble”.
Under “MANADLDKQPDSVSSVLKVFGILQALGEEREIGITELSQRVMMSKSTVYRFLQTMKTLGYVAQEGESEKYSLTLKLFELGARALQNVDLIRSADIQMRELSRLTKETIHLGALDEDSIVYIHKIDSMYNLRMYSRIGRRNPLYSTAIGKVLLAWRDRDEVKQILEGVEYKRSTERTITSTEALLPVLDQVREQGYGEDNEEQEEGLRCIAVPVFDRFGVVIAGLSISFPTLRFSEERLQEYVAMLHTAARKISAQMGYHDYPF” stands “soluble”; under “MANLIYLTLNGDNQGLISSGCSSQPSIGNKAQTAHIDQIMIYEFMHGLNRDQNVNHHHLTIKKPIDKASPLLGKAICDNELLTCDFSFYRTNKFGINELFYKIKLTGAKISDIHVSISHIVVDNSVQPEESVSFSYESIIWEHCSAGTSAYSLWEDRLF”, “not soluble”.
On to “MANLTRRQWLKVGLAVGGMVTFGLSYRDVAKRAIDGLLNGTSGKVTRDRIFGNALIPEAQAQTHWQQNPQQTIAMTQCFGCWTQCGIRARVNADGKVIRIAGNPYHPLSQEHPIDSSVPFSEAMEQLAGESGLDARSTACARGATLLESLYSPLRLLEPMKRVGKRGEGKWQRISFEQLIEEVVEGGDLFGEGHVDGLRAIHAPDTPIDAKHPSFGPKTNQLLVTNTSDEGRDAFLRRFALNSFGSKNFGAHGAYCGLAYRAGSGALMGDLDKNPHVKPDWENVEFALFMGTSPAQSGNPFKRQARQLASARLRENFQYVVVAPALPLSTVLADPRGRWQPVMPGSDSALAMGMIRWIMDNQRYNADYLAIPGVQAMQQAGEQSWTNATHLVIADELPTLAGQHLTLRHLTPDGEETPVVLNTDGELVDASTCRQARLFVTQYVTLADGQRVTVKSGLQRLKEAAEKLSLAQYSEQCGVPEAQIIALAETFTSHGRKAAVISHGGMMAGNGFYNAWSVMMLNALIGNLSLSGGVFVGGGKFNGVSDGPRYNMNSFAGKVKPSGLSIARSKTAYEASEEYRDKIAGGQSPYPAKAPWYPFVAGQLTELLTSALEGYPYPLKAWISNMSNPFYGVPGLRAVAEEKLKDPRRLPLFIAIDAFMNETTALADYIVPDTHNFESWGFTAPWGGVASKATTARWPVVAPATHRTADGQPVSMEAFCIAVAKRLHLPGFGDRAITDPQGNTFPLNRAEDFYLRVAANIAFMGKTPVALANQEDISLTGVSRILPAIQHTLKADEVGRVAFIYSRGGRFAPEDSGYTEQRLGNAWKKPLQIWNADVAAHRHAITGERFSGCPVWYPARLSDGRAIDDQFPIGQWPLKLISFKSNTMSSSTAVIPRLHHVKPANLVALNPQDGERYGLQHGDRVRIITPGGQVVAQISLLNGVMPGVIAIEHGYGHREMGATQHSLDGVPMPYDPQIRAGINLNDLGFADPTRTITNTWLDWVSGAAVRQGLPAKIERI”, for which the “soluble on expression in E. coli” value is given as “not soluble”.
For “MANMTFSLPDPMKDWIESRIQKGEYASASDYVRDLVRRDWARRGQDFSIDELRQIVAESRASGVGSRSMDDLFAEAERVATAHGVMRE”, the “soluble on expression in E. coli” value is “not soluble”.
Under “MANQLAAVLGTGQTHYVAKRHDVSMAGLVREAIDRAMEDARVGWDDIDAVVIGKAPDLFEGSMMPELAMSDALGANGKPLLRVHTAGSVGGSTAVVASSLVKSGVHKRVLTVAWEKQSESNAMWALSTPIPFHMPVGAGAGGYFAPHVRSYIRRSGAPDHIGAMVAVKDRLNGSLNPYAHLKQPDITLESVQASQMLWDPIRYDETCPSSDGACAMVIGNEEAAEQVTADGREVAWIHATAMRTEPTTFAGRDQVNPQAGRDAAAALWKAAGIKDPLDEIDVAEIYVPFSWFEPMWLENLGFVSEGEGWKLTEAGETAIGGRLPLNASGGVLSSNPIGASGMIRFAESAMQVMHRAGDHQVKDARKALGHAYGGGSQYFSMWVVGSDRPNN” stands “not soluble”; under “MANRVTMMMKIFENQTAMLHKALNDQHTIESKYKQMETNYENLILKKNLLEGEIQRLRDPERVKSATKLERTKKPGKSEKKKDKDLERNISPNREFKSFEELHQIQETERNKTQLDNVLPQKSEMFKEERTKTKRGQSQNKSKVKIEDSKDSLPKKSDTQLGEQRKDQISSDQSKRAK”, “soluble”.
Under “MANSAGSMQQILNQFNHVVAIGGGHGLGRVLSSLDFLGNRLTGIVATTDNGGSTGRLRAEQDCIAWGDLRNCLSQLAHRPSVGSQLFEYRFQGETELSGHNLGNLMLLALDKLCVRPLEAVNLIRHMLKIETNIIPMSEQPTHLVALQASGSKVFGEVNVDKMNEAPIALCLEPQVNATTEACEAIRRADLIILGPGSFLTSIMPPLLLPCFAKALAMTTAPVVFIDNLNEEASPAGQFSIEQRISWCHQVIGKPVITKVLRHSEQLRLGTLVNYFPLRNRHNPQLHDQASLRDALCAVLRIKSGLPLETLVSLEHHHHHH” stands “not soluble”; under “MANTITADEIREHFSQAMSAMYQQEVPQYGTLLELVADVNLAVLENNPKLHEQLANADELARLNVERHGAIRVGTAEELSTLRRIFAIMGMYPVSYYDLSQAGVPVHSTAFRPIDEASLSRNPFRMFTSLLRLELIENAALRQRAAEILSQRDIFTSRCRQLLDEYDEQGGFSAAQAEEFVRETLETFRWHRQATVDEETYRSLHREHRLIADVVCFPGCHINHLTPRTLDIDRVQAMMPECGITPKILIEGPPRREVPILLRQTSFKALEEQVLFVDEKQGTHTARFGEIEQRGVALTPKGRRLYDELLHKAGTGKDNFTHQLHLREVFNAFPDSEFLLRQQGLAWFRYRLTPSGEAHRQAIHPGDDPQPLIERGWVIAQPITYEDFLPVSAAGIFQSNLGDETLARSHGNASRDAFEQALGCAVRDEFSLYQEAEERSKRRCGLLLEHHHHHH”, “not soluble”; under “MAPAKKVETRSTDGETRRHIMLIMLKEGPVTATQLGQQLNLSATGIRRHLDILLDEGFAEISSVRRVACEKSRGRPAKAFKLTASGRSQFGHEYDSLAAEALATLKESGGEAAVRAFARKRVEKILADVHVPDNIDDNQLAEVATQLVEAFSNNGYAATINNAANGVQICQHHCPISGVAADFPELCEAEHEMIAKILGHHVQPLASIADGHDICTTNIPITPILTPRKNTPTERSGS”, “not soluble”.
On to “MAQGYRRDHNHHHESGYKRPSDPGGDLPSDKRHRPPPAEGRTLSADRRLYERHFPLYKQPLELGCFSLDARRNFFNDHRQLRYYVEPRRSPDFNLRDGYTSRFIKRDDGVKEKLDHMLRWILENRHKMQNSNSSSCALGVDFITWRGHLTKVLTTPYETQEGWMMAACKFRGSIYISEVETEQARENRETRSERQEEMMYWGYKFEQYTCADGADGTPDPGGVVNTNEAFCTVVQTRLADQSQTLRV”, for which the “soluble on expression in E. coli” value is “not soluble”.
Under “MAQILPIRFQEHLQLQNLGINPANIGFSTLTMESDKFICIREKVGEQAQVVIIDMNDPSNPIRRPISADSAIMNPASKVIALKAGKTLQIFNIEMKSKMKAHTMTDDVTFWKWISLNTVALVTDNAVYHWSMEGESQPVKMFDRHSSLAGCQIINYRTDAKQKWLLLTGISAQQNRVVGAMQLYSVDRKVSQPIEGHAASFAQFKMEGNAEESTLFCFAVRGQAGGKLHIIEVGTPPTGNQPFPKKAVDVFFPPEAQNDFPVAMQISEKHDVVFLITKYGYIHLYDLETGTCIYMNRISGETIFVTAPHEATAGIIGVNRKGQVLSVCVEEENIIPYITNVLQNPDLALRMAVRNNLAGAEEL” stands “soluble”; under “MAQIVRQSKFRHVFCKPVKHESCMSDIRVTEITWDSLFCDVNPKFIAFINRGAGGPFMVIPVNKIGRVDKDYPFVDAHKAPCLEVAWSPFNDNVIASCSEDTTCKVWVIPDRGLNRNLSEPAVELTGHQKRVNTIAWHPVANNVLLTAGGENVMFMWNVGTGEALLEISGHPDQIWSINFNFDGSQFVTTCKDKKIRILDSHTGEVVHEGMGHEGVKPQRAIFVKDGLILSTGFTKRSERLYALRAPEDLSTPIVEEELDTSNGVVFPFYDEDSGLVYLVGKGDCAIRYYEVNNDAPYVHYINTYTTNEPQRAVGFQSKRGMSSEENEINRIYKLTTKGVVDILQFFVPRKSDLFQHDLYPDTRSTIPALTAEEFMEGKNAAPNRQPVNAAAAAAAAKPKVQVAKKANILSTLAPTAAESVPTQSYSERPPSSQQPSPRPSASPRPRPVVDDDMGIVTMREAPPSRPASSRASRTEIPPKEESKVDPMKPKQAVQLKSRAARDEPGGGAQTAGQRRAAAELERIKRDQSRTADEDNTLAPPPSSSRASASPRGSVSAASDHVPQNMDELLEDLMKMKAVLRQHERRIRMLEEEIADRNMSNAYSF”, “not soluble”.
Regarding “MAQNPNSFTDSVFGMIRNLLVSIRAGLFELTIKQPVTQNSLQRYQEEHREEKQQYLRQAILDLAEDSEEEDDGQPLDKETLSKMIAELTIERNNLRRSFNIVNEQRTGSKDRQHMEEEIRIQNWTKEDREELESGLAVMRQTIQESWKDAADCEQEKRSKNNQ”, the “soluble on expression in E. coli” value is “not soluble”.
Under “MAQVGETEVVAGNVRDIVNRLSRDMTNRNPFTVHQQVERRAPPPQPQAQIYVATYAYSSKQDDELSFVVGDLIELISDVEDGWSKGKLKSTGAVGMFPTNFVTLKPTPSTSAAAVAPAASASTSAGSAARTPAKSIGSEVVMRSEPKAIDRTPSTIISDPAPVLKALETKFSSTFASSAASASTDAETTKTKEMARVKFVYNPQHDDELALKEIDMLINITNKNCGDAGWFEGELHGKKGLFPDNFVELVQVPLGTESGARHGSISRQATLTFVSHKPPPVNPPQPAVPPKPAKISVVRRGFIEKIEKKMFHFISGNN” stands “soluble”; under “MARETHDREDLLLEGVNLPERARLLHRASGREWVIGWRTGGGAAFYDGPDRVYQFNADNQLRRVYLDGSKLAAEGGRLCELRRPEPTNPDGSAGDRTQKVKLVWQPIDSAIQRNVLEQWAETRQQLLTALELFRERDLPNVTIASTAPDGSNSSLSTQPSIYSWESVGIDAFEMLDRTSGWLVSITDNPEIAAQPNA”, “soluble”.
Consider “MARFSSVLIYDGECPYCSVAAKALEQVDDIGAISWYDESAQSFLTAQFDEPPFAMVLVDRPAQQVYAGRAAAEELAGRAGLPDLVGSLVRDNYEKIAHVVGLASGRGLEHHHHHH”, for which the “soluble on expression in E. coli” value is “not soluble”.
